This data set has as its target T1, RcCas13a (Rhodobacter capsulatus, UniProt D5AUW0 1-1285).
T1 sequence: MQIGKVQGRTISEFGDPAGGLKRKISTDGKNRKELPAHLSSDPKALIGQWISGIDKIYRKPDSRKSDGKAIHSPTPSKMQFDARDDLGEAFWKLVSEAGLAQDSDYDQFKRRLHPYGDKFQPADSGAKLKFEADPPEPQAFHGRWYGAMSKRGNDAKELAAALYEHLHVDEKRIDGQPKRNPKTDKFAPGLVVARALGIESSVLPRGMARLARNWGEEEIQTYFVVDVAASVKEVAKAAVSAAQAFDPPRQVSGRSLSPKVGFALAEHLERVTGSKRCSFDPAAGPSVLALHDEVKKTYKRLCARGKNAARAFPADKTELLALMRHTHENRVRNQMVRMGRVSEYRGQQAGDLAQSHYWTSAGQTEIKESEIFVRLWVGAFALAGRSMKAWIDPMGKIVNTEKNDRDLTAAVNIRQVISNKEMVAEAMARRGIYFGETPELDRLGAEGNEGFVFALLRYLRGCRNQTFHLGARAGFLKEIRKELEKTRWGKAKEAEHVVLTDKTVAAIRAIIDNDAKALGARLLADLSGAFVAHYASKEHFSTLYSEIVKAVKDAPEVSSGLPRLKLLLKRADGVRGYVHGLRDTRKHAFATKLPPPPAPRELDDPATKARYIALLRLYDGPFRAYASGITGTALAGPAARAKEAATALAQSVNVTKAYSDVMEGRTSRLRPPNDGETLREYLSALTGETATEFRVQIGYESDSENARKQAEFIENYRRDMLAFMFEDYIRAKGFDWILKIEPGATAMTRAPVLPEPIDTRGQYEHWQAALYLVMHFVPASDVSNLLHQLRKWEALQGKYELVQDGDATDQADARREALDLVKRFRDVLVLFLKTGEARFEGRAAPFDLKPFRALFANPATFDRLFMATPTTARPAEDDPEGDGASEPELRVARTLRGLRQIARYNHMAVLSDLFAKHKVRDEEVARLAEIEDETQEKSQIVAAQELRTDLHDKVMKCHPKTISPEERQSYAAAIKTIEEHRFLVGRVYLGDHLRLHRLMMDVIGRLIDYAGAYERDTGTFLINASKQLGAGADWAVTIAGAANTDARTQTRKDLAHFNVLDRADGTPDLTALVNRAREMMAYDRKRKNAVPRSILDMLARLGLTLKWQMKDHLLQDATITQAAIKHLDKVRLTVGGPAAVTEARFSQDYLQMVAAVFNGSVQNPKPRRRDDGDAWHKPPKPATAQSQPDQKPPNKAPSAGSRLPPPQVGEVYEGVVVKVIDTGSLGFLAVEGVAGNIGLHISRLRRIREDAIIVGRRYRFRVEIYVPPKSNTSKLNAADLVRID
The data set is described as follows: X-ray crystal structure (2.1 A); binary complex, no target RNA; Complex co-purified by Ni affinity and SEC: 50 mM Hepes pH 8.0, 500 mM NaCl, 10% glycerol, 1 mM DTT, 4-8 C; crystallization conditions not in material. Conditions: protein: recombinant; tags: C-terminal His6, not removed for the crRNA complex; hairpin.

B1: crRNA for crystallization (structured_RNA)
RNA: GCCUCACAUCACCGCCAAGACGACGGCGGACUGAACCUUCAUUACCUCUGUUUG
As to B1, the binding result is “binds”.
